16 sequences from the supplement of paper PMC9170038 can be followed below.

This data set has as its system K4 kissing-loop RNA reporter. Put plainly: apparent KD of K4 kissing-loop reporter; higher = weaker reporter binding. To be noted: Eterna round: R107. As for the experimental part:
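RNA-MaP round R107: designed RNA switches with theophylline, tryptophan, arginine or FMN aptamers are transcribed on-chip within common flanks. They are titrated with a labelled K4 kissing-loop RNA reporter in RNA-MaP buffer (100 mM Tris pH 7.5, 80 mM KCl, 4 mM MgCl2), without ligand or with the indicated ligand. Median apparent KD per design.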

The mark [1] stands for this setting: input ligand: theophylline 20 uM.
The mark [2] stands for this setting: input ligand: tryptophan 2.4 mM.
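Also: bound reporter read as fluorescence of individual clusters on recovered sequencing chips by microscopy, with normalized cluster intensities fitted with a binding model.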

On to “UUAGUCAGAUUAUUAUUAGCCUGCGAGACUAAGGAUAUCCGAAUUCGGAGAAGGUAGUGAUGUUACUUUGGCAGGCACUGACAUU [AK8 Exc FMN A]”, for which the “apparent KD of K4 kissing-loop reporter” value is, setting by setting: (input ligand: FMN 200 uM) 0.89 µM; (input ligand: arginine 13.2 mM) 0.611 µM; (input ligand: none) 0.727 µM; under setting [1], 0.643 µM; under setting [2], 0.576 µM.

On to “UUGAGCCGGACCGAAGUCCGGCUCUGCGAGCGAGGACCGGUACGGCCGCCACUCGGUGCAGUGAUGUUGCAUGGCCGCAAGGCCG [#2 Exclusion - Tryptophan A Attempt #8 (HarryS)]”, for which the “apparent KD of K4 kissing-loop reporter” value worked out at 0.424 µM (input ligand: FMN 200 uM); 0.287 µM (input ligand: arginine 13.2 mM); 0.418 µM (input ligand: none); 0.339 µM under setting [1]; 0.401 µM under setting [2].

“ACGUGCACUAGUGAUGUUAGAAAAUACGAAGGAGCGGGCGAAAGCCCAGGUAGGUCGCGUAAUAGCACGAGCCACGAAAGUGGCA”: the “apparent KD of K4 kissing-loop reporter” value is 0.254 µM (input ligand: FMN 200 uM); 0.271 µM (input ligand: arginine 13.2 mM); 0.325 µM (input ligand: none); 0.447 µM under setting [1]; 0.248 µM under setting [2].

For “UAAGAGUCUCUGCAAUUAGCAGAGACUCAACGAGGACCGGUACGGCCGCCACUCGGGUCCUAGAGUGAUGUUCUAAUAAUAUAAU [AK1.1 SS Tryptophan A]”, the “apparent KD of K4 kissing-loop reporter” value (input ligand: FMN 200 uM) is 0.273 µM; the “apparent KD of K4 kissing-loop reporter” value (input ligand: arginine 13.2 mM) was 0.359 µM; the “apparent KD of K4 kissing-loop reporter” value (input ligand: none) stood at 0.548 µM; the “apparent KD of K4 kissing-loop reporter” value under setting [1] came to 0.425 µM; the “apparent KD of K4 kissing-loop reporter” value under setting [2] stood at 0.176 µM.

As for “AAAUUUUAAAGUGAUACCAGACAUCUCAAUUACAUUAAUAAAGCUAAGUGAUGUUUAGCAGUCCCUUGGCAGCACAAUUUAAUUA [JR_SSTheophyB_Sub011]”, the “apparent KD of K4 kissing-loop reporter” value runs as follows: (input ligand: FMN 200 uM) 0.272 µM; (input ligand: arginine 13.2 mM) 0.334 µM; (input ligand: none) 0.334 µM; under setting [1], 0.447 µM; under setting [2], 0.281 µM.

As to “GCAGUGAUGUUGCGAAUCGGCCAUGAUGCAGAGGAUAUCGUGCCUUCGAGAAGGUUGUAUAGAGGAUACGAUACUAUUAAUGACG [Same State FMN A GF 6]”, the “apparent KD of K4 kissing-loop reporter” value runs as follows: (input ligand: FMN 200 uM) 0.395 µM; (input ligand: arginine 13.2 mM) 0.356 µM; (input ligand: none) 0.714 µM; under setting [1], 0.413 µM; under setting [2], 0.329 µM.

Take “UAAGAGGACCACUGCAAGAGUCCUCGAAUACGAGGACCGGUACGGCCGCCACUCGAUAACUUGUAGUGAUGUUGCAAGUAAGAAU [BrourdMod 1 - Jieux - Same State Tryptophan A]”: the “apparent KD of K4 kissing-loop reporter” value (input ligand: FMN 200 uM) was found to be 0.0712 µM; the “apparent KD of K4 kissing-loop reporter” value (input ligand: arginine 13.2 mM) turned out to be 0.0792 µM; the “apparent KD of K4 kissing-loop reporter” value (input ligand: none) was found to be 0.0794 µM; the “apparent KD of K4 kissing-loop reporter” value under setting [1] was 0.0792 µM; the “apparent KD of K4 kissing-loop reporter” value under setting [2] stood at 0.0429 µM.

“AAUUUACAAUAAUCAUUUAAAGGAUCAGAAGGAGCGUGAAAUAACACAGGUAGGUCGCUGAGCGAGUGAUGUUCGCUAUAUACAA [JR_ExcArginiA_Sub001]”: the “apparent KD of K4 kissing-loop reporter” value was 0.0523 µM (input ligand: FMN 200 uM); 0.0687 µM (input ligand: arginine 13.2 mM); 0.0688 µM (input ligand: none); 0.0859 µM under setting [1]; 0.0501 µM under setting [2].

Regarding “AUUAAUUUCAGAGGAUAUCGUUAUUUUAUUUAAUUUAUUCAUUUAUGCAGUGAUGUUGCUAUUAUUCGAGAAGGCUGAUUUAUAA [JR_ExcFMNB_Sub006]”, the “apparent KD of K4 kissing-loop reporter” value is, setting by setting: (input ligand: FMN 200 uM) 0.0821 µM; (input ligand: arginine 13.2 mM) 0.0835 µM; (input ligand: none) 0.034 µM; under setting [1], 0.0704 µM; under setting [2], 0.0353 µM.

As for “AAAUUUAUUAUAUUUGAAUAAAUAUGUGAUACCAGACAUUUAUAAGUCCCUUGGCAGCACAAUGCAGUGAUGUUGCUUAUAAUAA [JR_SSTheophyA_Sub018]”, the “apparent KD of K4 kissing-loop reporter” value (input ligand: FMN 200 uM) is 0.089 µM; the “apparent KD of K4 kissing-loop reporter” value (input ligand: arginine 13.2 mM) came out at 0.11 µM; the “apparent KD of K4 kissing-loop reporter” value (input ligand: none) was found to be 0.093 µM; the “apparent KD of K4 kissing-loop reporter” value under setting [1] came to 0.182 µM; the “apparent KD of K4 kissing-loop reporter” value under setting [2] came out at 0.0738 µM.

In the case of “AAUGUGCAGGGAAGGAGCGUAGUCCAGUGCUGUUGGAGUUAGAUACCAGUGAUGUUGGUUAUACAGGUAGGUCGCCCUAAAGCGC [whbob_Ex_Arginine_B_2th161]”, the “apparent KD of K4 kissing-loop reporter” value stood at 0.139 µM (input ligand: FMN 200 uM); 0.154 µM (input ligand: arginine 13.2 mM); 0.14 µM (input ligand: none); 0.161 µM under setting [1]; 0.13 µM under setting [2].

As for “CAUAGACAAGUGAUGUUUGUCAUAACCGAAGGAGCGUCGUUGAAGACAGGUAGGUCGCGGAUUAAUUUAGAUUAUAUUCUUUUUA [JR_SSArginiA_Sub020]”, the “apparent KD of K4 kissing-loop reporter” value by setting is: (input ligand: FMN 200 uM) 0.595 µM; (input ligand: arginine 13.2 mM) 0.462 µM; (input ligand: none) 0.57 µM; under setting [1], 0.567 µM; under setting [2], 0.542 µM.

“UCGAAAUGCGUCUCCUAGUUACUCCGGGAAGGAGCGUGGAUAACCGCAGGUAGGUCGCCCGGAAGCCGGACCAGUGAUGUUGGUC [Exclusion Arginine A Gf 29]”: the “apparent KD of K4 kissing-loop reporter” value was 0.216 µM (input ligand: FMN 200 uM); 0.179 µM (input ligand: arginine 13.2 mM); 0.221 µM (input ligand: none); 0.186 µM under setting [1]; 0.182 µM under setting [2].

For the sequence “AAAAUAAAUCAGUGAUGUUGGUAUCCGGAUACCAGCGAUAAUCAUCGCCCUUGGCAGCCGUGGACGUACAAAAUAAGUACGUCCU [MatMod 16 - Jieux - Same State - Theophylline A]”, the “apparent KD of K4 kissing-loop reporter” value by setting is: (input ligand: FMN 200 uM) 0.137 µM; (input ligand: arginine 13.2 mM) 0.104 µM; (input ligand: none) 0.168 µM; under setting [1], 0.171 µM; under setting [2], 0.183 µM.

“CAGAACUUAUAUAGAAACUAUAUAAGAGAUACCAGUCAAAUUAAAGACCCUUGGCAGCUCAGGCGAGUGAUGUUCGCAGGCUAAC [Astros-Gfrank-modulation#1]”: the “apparent KD of K4 kissing-loop reporter” value (input ligand: FMN 200 uM) was determined as 0.0993 µM; the “apparent KD of K4 kissing-loop reporter” value (input ligand: arginine 13.2 mM) stood at 0.0942 µM; the “apparent KD of K4 kissing-loop reporter” value (input ligand: none) came out at 0.102 µM; the “apparent KD of K4 kissing-loop reporter” value under setting [1] was found to be 0.106 µM; the “apparent KD of K4 kissing-loop reporter” value under setting [2] is 0.0788 µM.

For “CCGAGCUACAGCGAUACCAGUGUGGAGUGAUGUUCCCUGGUCCGGGCUGUUGUUCCCUUGCGCCCUUGGCAGCGCAGAAGCAGCU [Exclusion Theophylline B GF 14]”, the “apparent KD of K4 kissing-loop reporter” value came out at 0.303 µM (input ligand: FMN 200 uM); 0.316 µM (input ligand: arginine 13.2 mM); 0.367 µM (input ligand: none); 0.267 µM under setting [1]; 0.396 µM under setting [2].
